Reference: patent US20060257397A1 (CRUCELL HOLLAND B V, published 2006)
Numbering of substitutions follows the chain as printed.

B1: human anti-human CD1a monoclonal antibody CR2117 (antibody, human IgG1, kappa, V domains shown)
VH: EVQLVESGGGLVHPGGSLRLSCAGSGFTFSSYAMHWVRQAPGKGLEWVSAIGTGGGTYYADSVKGRFTISRDNAKNSLYLQMNSLRAEDTAVYYCARSTPWFSFDYWGQGTLVTVSS
VL: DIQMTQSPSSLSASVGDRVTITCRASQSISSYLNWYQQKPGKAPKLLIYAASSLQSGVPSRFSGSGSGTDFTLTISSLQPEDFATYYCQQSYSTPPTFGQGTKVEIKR
notes: Fully human IgG1 kappa made from scFv SC02-117; unlabeled or biotinylated; also called 02-117
B2: human anti-human CD1a monoclonal antibody CR2118 (antibody, human IgG1, kappa, V domains shown)
VH: B1 VH with G52S, T99A, P100W, F102L, Y106S
VL: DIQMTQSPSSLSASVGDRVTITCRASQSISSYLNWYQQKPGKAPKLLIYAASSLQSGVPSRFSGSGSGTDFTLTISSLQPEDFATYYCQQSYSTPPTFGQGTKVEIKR
notes: Fully human IgG1 kappa made from scFv SC02-118; unlabeled or biotinylated; also called 02-118
B3: human anti-human CD1a monoclonal antibody CR2114 (antibody, human IgG1, kappa, V domains shown)
VH: EVQLVESGGGLVQPGGSLRLSCAASGFTFSSYSMNWVRQAPGKGLEWVSYISSSSSTIYYADSVKGRFTISRDNAKNSLYLQMNSLRDEDTAVYYCAKETWWQSFDYWGQGTLVTVSS
VL: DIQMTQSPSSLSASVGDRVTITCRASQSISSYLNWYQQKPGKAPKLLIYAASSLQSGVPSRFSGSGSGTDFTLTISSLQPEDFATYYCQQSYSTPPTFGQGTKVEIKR
notes: Fully human IgG1 kappa made from scFv SC02-114; unlabeled or biotinylated; also called 02-114
B4: human anti-human CD1a monoclonal antibody CR2113 (antibody, human IgG1, kappa, V domains shown)
VH: QVQLQESGAGLLKPSETLSLTCAVYGGSFSGYYWSWIRQPPGKGLEWIGYIYYSGSTNYNPSLKSRVTISVDTSKNQFSLKLSSVTAADTAVYYCAKAPYMMYFDSWGQGTLVTVSS
VL: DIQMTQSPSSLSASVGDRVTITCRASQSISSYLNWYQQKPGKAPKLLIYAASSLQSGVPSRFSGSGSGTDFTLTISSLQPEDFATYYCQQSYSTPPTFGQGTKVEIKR
notes: Fully human IgG1 kappa made from scFv SC02-113, expressed in 293T cells; Used unlabeled, biotinylated or Alexa488-labeled depending on the assay; also called 02-113
B5: human anti-human CD1a monoclonal antibody CR2115 (antibody, human IgG1, V domains shown)
VH: QVQLVQSGAEAKKPGASVKVSCKASGYTFTGYYMHWVRQAPGQGLEWMGWISAYNGNTNYAQKLQGRVTMTTDTSTSTAYMELRSLRSDDTAVYYCARSQMPSYFDYWGQGTLVTVSS
VL: SSELTQDPAVSVALGQTVRITCQGDSLRSYYASWYQQKPGQAPVLVIYGKNNRPSGIPDRFSGSSSGNTASLTITGAQAEDEADYYCNSRDSSGNHVVFGGGTKLTVLG
notes: Fully human IgG1 lambda made from scFv SC02-115; also called 02-115

What was measured:
[1] = target: T1, human CD1b (human, UniProt P29016 18-333); experiment: flow cytometry on C1R-CD1b transfectant
T1 construct: whole, on cells; also called C1R-CD1b; CR1-CD1b
Description: (§1) The human anti-CD1a IgG1 antibodies were validated for their ability to bind to CD1a transfected cell lines essentially as described for scFvs (see Example 3). The purified anti-CD1a antibodies were diluted to various concentrations (depicted in the figures) and detected with mouse anti-human IgGκ labeled with FITC or FITC-labeled streptavidin in the case of biotinylated human anti-CD1a antibodies. In addition to the cell lines C1R-CD1a and C1R mock transfected described in Example 3, the cell lines C1R-CD1b , C1R-CD1c , C1R-CD1d and B16-CD1a and B16 mock transfected were tested. Each staining was repeated three times and compared to the negative control irrelevant isotype control antibody called CR2027 using the Kolmogorov-Simov test. To calculate K-S statistics, an overlay of histograms of isotype control antibody and anti-CD1a antibody was made. The log shift between the peaks of the histograms was determined and used to calculate the D-value. The greater the log shift of the anti-CD1a antibody response peak from the isotype control antibody response peak, the larger the D-value.
(§2) No specific staining of any of the six human anti-CD1a monoclonal antibodies was detected on the C1R-CD1b or C1R-CD1d transfectants (see FIG. 4). Slight, but significant, staining (p<0.05) was detected for the two antibodies CR2114 and CR2117 on C1R-CD1c transfectants (see FIG. 4). […] In addition, staining was also carried out on freshly prepared mouse thymocytes, which express murine […] at low levels.

[2] = target: T2, human CD1c (human, UniProt P29017 18-333); experiment: flow cytometry on C1R-CD1c transfectant
T2 construct: whole, on cells; also called C1R-CD1c; CR1-CD1c
T2 sequence (looked up): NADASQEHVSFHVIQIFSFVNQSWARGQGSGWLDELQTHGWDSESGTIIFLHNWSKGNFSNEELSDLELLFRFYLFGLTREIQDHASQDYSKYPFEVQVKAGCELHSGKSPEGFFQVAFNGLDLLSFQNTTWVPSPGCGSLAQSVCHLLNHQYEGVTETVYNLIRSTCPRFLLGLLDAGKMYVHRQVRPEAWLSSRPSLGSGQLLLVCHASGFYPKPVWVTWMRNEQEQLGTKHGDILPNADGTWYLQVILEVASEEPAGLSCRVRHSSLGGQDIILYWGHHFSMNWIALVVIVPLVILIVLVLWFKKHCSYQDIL
Description: as §1
No specific staining of any of the six human anti-CD1a monoclonal antibodies was detected on the C1R-CD1b or C1R-CD1d transfectants (see FIG. 4). Slight, but significant, staining (p<0.05) was detected for the two antibodies CR2114 and CR2117 on C1R-CD1c transfectants (see FIG. 4). […]

[3] = target: T3, human CD1d (human, UniProt P15813 20-335); experiment: flow cytometry on C1R-CD1d transfectant
T3 construct: whole, on cells; also called C1R-CD1d; CR1-CD1d
T3 sequence (looked up): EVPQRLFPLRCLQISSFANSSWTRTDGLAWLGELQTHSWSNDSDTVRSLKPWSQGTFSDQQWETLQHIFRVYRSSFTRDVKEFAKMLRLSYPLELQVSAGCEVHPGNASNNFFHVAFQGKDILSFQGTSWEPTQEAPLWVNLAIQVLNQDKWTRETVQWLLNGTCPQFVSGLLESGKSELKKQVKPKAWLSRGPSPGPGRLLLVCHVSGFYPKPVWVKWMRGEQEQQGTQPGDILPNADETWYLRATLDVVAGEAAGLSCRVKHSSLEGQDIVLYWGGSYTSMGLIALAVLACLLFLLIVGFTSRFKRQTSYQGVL
Description: as §1, §2

[4] = target: T4, murine CD1d (mouse, UniProt P11609 22-336); experiment: flow cytometry on freshly prepared mouse thymocytes
T4 construct: whole, on cells; also called mouse thymocytes
T4 sequence (looked up): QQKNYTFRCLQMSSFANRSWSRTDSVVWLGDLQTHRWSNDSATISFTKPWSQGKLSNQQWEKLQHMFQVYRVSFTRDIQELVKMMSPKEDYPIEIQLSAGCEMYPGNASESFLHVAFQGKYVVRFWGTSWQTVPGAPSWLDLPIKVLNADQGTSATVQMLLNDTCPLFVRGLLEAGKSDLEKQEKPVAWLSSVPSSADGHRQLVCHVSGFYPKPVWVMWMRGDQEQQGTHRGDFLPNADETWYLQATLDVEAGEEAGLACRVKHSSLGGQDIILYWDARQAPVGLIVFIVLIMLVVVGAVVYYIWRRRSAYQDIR

[5] = target: T5, murine CD1a (mouse); experiment: flow cytometry on mouse thymocytes, K-S statistics against isotype control
T5 construct: whole, on cells; no such UniProt entry is known to me (mice are known to carry only CD1d genes); also called mouse thymocytes
Description: as §1, §2

[6] = target: T4, murine CD1d; experiment: as above
Description: as §1, §2

[7] = target: T6, human CD1a (human, UniProt P06126 17-327); experiment: flow cytometry on B16-CD1a transfectants, biotinylated antibody detected with FITC-labeled streptavidin; D-value versus isotype control CR2027
T6 construct: whole, on cells; also called C1R-CD1a; CR1-CD1a
Description: as §1
(§3) Binding curves were generated for the antibodies CR2113, CR2114, CR2117 and CR2118 by measuring binding on B16-CD1a transfected cells with FACS as above using the concentrations of antibody ranging from 0.01 to 10 μg/ml. […]

[8] = target: T6, human CD1a; experiment: flow cytometry on B16-CD1a transfectants, unlabeled antibody detected with FITC-labeled mouse anti-human IgG kappa; D-value versus isotype control CR2027
Description: as §1, §3

[9] = target: T6, human CD1a; experiment: competition flow cytometry on B16-CD1a cells: unlabeled antibody for 30 min, then biotin-labeled CR2113 at 2.5 µg/ml, FITC-streptavidin
Description: (§4) B16 mouse melanoma cells expressing human CD1a were stained with unlabeled CR2113, CR2114, CR2117, CR2118 or the negative control CR2027 at different concentrations (0.1, 0.3, 1, 3, 10, 30, 50, 100 μg/ml) for 30 minutes and then stained with one of the above antibodies labeled with biotin as described above for five minutes at a concentration of 2.5 μg/ml. Detection was by FITC-labeled streptavidin incubated for 20 minutes. Furthermore, staining was performed as described above (see Example 3). Each staining was done three successive times and the D-value calculated with K-S statistics (see above). The staining of unlabeled control antibody CR2027 is shown by the dotted line staining using the test antibody is depicted with a solid line. CR2113 was able to compete with itself in a dose dependent manner, however none of the other antibodies could compete with biotinylated CR2113 for binding (see FIG. 6A). […] In contrast, unlabeled CR2113 was able to compete for binding of CR2114 (see FIG. 6B), CR2117 (see FIG. 6C) and CR2118 (see FIG. 6D) to B16-CD1a transfectants in a concentration dependent manner. Neither CR2117 nor CR2118 was able to compete with CR2114 for binding to CD1a. This could be due to sub-optimal affinity.

[10] = target: T6, human CD1a; experiment: competition flow cytometry on B16-CD1a cells: unlabeled antibody for 30 min, then biotin-labeled CR2114 at 2.5 µg/ml, FITC-streptavidin
Description: as §4

[11] = target: T6, human CD1a; experiment: competition flow cytometry on B16-CD1a cells: unlabeled antibody for 30 min, then biotin-labeled CR2118 at 2.5 µg/ml, FITC-streptavidin
Description: as §4

T1 sequence (P29016 18-333): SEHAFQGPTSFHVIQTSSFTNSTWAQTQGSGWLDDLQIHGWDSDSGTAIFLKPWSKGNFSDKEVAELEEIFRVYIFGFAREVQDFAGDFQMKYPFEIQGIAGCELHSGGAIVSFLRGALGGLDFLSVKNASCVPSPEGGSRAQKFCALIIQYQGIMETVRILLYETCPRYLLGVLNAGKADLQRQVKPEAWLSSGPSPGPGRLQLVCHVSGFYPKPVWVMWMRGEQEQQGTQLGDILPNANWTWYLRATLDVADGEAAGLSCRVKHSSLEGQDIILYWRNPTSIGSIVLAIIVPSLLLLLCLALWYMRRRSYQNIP
T6 sequence (P06126 17-327): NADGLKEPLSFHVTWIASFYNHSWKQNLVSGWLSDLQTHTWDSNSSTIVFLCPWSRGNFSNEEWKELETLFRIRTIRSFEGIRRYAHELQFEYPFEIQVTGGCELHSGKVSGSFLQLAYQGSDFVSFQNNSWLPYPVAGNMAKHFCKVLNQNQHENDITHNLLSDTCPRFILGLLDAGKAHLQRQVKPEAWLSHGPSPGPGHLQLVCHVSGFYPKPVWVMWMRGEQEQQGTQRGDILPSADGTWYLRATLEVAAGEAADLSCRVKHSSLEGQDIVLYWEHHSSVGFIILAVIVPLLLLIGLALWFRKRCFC

| Binder | binding result [1] | binding result [2] | binding result [3] | binding result [4] | D-value [5] | D-value [6] | EC50 (read off the curve) [7] | binding result [8] | IC50 (read off the curve) [9] | IC50 (read off the curve) [10] | IC50 (read off the curve) [11] |
| --- | --- | --- | --- | --- | --- | --- | --- | --- | --- | --- | --- |
| B1 | no binding | binds | no binding | no binding | 0 | 0 | ~2 microgr/ml |  |  |  |  |
| B2 | no binding |  | no binding | no binding | 0 | 0 |  | binds |  |  |  |
| B3 | no binding | binds | no binding | no binding | 0 | 0 |  |  |  |  |  |
| B4 | no binding |  | no binding | no binding | 0 | 0 | ~0.1 microgr/ml |  | ~3 µg/mL | ~0.5 µg/mL | ~0.6 µg/mL |
| B5 | no binding |  | no binding | no binding |  | 0 |  |  |  |  |  |
